{"source": "IntAct's records for PubMed 21358815", "parents": {"B1": {"name": "BAG family molecular chaperone regulator 5 (Rattus norvegicus (Rat)), Q5QJC9 (parent)", "chain": "MDMGNQHPSISRLQEIQREVKSIEQQVVGFSGLSDDKNYKRLERILTKQLFEIDSVDTEGKGDIQQARKRAAQDTERLLKELEQNANHPHRIEIKNIFQEAQALVKEKTVPFYSGSNCVTSEFEEAIQDIILRLTHVKTGGKISLRKARYHTLTKICAVQEIIEDCVRKQPSLPLSEDVHPSVAKINSVMCEVNKARGTLIALLMGVDSSETCRHLSCVLSGLMADLDALDVCGRTEIRNYRREVVEDINKLLKYLDLEEEADNTHAFDLGQNHSIIKIENVLKRMREMKNELLQAQSPPELYLRSKTELQGLIGQLDEVSLEKNPCIREARRRAVIEVQTLITYLDLKEALEKRKLFPCEETPPHKAVWNVLGNLSEIQGEVLSFGGNRTDKNYIRLEELLTKQLLTLDAVDPLGEEKCKAARKQAVKLAQNILSYLDMKSDEWEY"}}}
{"variants_of": "B1", "conditions": "with chip_human STUB1, Q9UNE7"}
{"variant": "D54A;R68A;D228A;R242A;D318A;R332A;D410A;R424A", "effect of a mutation on the interaction": "disrupting interaction"}
